Test results: article doi:10.1101/2025.11.04.686606

Target: PcoAA14A_dCTR, disordered C-terminal region alone of PcoAA14A (Pycnoporus coccineus)
Assay: SEC-MALLS

- stoichiometry N: 2
Substance: PcoAA14A_dCTR, disordered C-terminal region alone of PcoAA14A (domain or fragment)
